Test results: US20100015126A1, “Methods of Binding of Cross-Beta Structures By Chaperones” (priority 2006, published 2010)

Assays:
[1] = biological target: IGHM protein, coagulation factor VII (serum prothrombin conversion accelerator) (human) (UniProt P08709); experiment: BiP-Sepharose pull-down, RA synovial fluid sample 1B, 1 M NaCl eluate, MS; may be indirect
[2] = biological target: 187 kDa protein/Complement component 3 (human) (UniProt P01024); experiment: as above
[3] = biological target: Isoform H17 of Myeloperoxidase precursor (human) (UniProt P05164); experiment: as above
[4] = biological target: Vitronectin precursor (Serum-spreading factor/S-protein) (human) (UniProt P04004); experiment: as above
[5] = biological target: FLJ00385 protein (Fragment), immunoglobulin heavy constant mu (human) (UniProt P01871); experiment: as above
[6] = biological target: Galectin-3-binding protein precursor (human) (UniProt Q08380); experiment: as above
[7] = biological target: Apolipoprotein A-II precursor (human) (UniProt P02652); experiment: as above
Sequence of Apolipoprotein A-II precursor (human) (P02652 24-100 limits assumed): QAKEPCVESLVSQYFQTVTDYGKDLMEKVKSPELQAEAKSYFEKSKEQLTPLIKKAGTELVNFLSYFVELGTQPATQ

[8] = biological target: Single-chain Fv (Fragment), Ig heavy chain V-III region TRO (human) (UniProt P01762); experiment: as above
Sequence of Single-chain Fv (Fragment), Ig heavy chain V-III region TRO (human) (P01762 20-117 limits assumed): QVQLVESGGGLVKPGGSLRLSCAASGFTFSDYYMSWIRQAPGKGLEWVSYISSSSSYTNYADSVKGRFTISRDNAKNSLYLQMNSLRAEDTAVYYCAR

[9] = biological target: Hypothetical protein DKFZp686I04196 (Fragment)/Immunoglobulin heavy constant gamma 2 (G2m marker)/Ig gamma-2 chain C region (human) [IgG part: P01859]; experiment: as above
[10] = biological target: IGKV1-5 protein, immunoglobulin kappa variable 1-5 (human) (UniProt P01602); experiment: as above
Sequence of IGKV1-5 protein, immunoglobulin kappa variable 1-5 (human) (P01602 23-117 limits assumed): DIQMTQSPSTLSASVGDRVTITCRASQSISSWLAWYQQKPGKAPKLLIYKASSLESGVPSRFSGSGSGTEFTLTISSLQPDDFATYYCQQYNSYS

[11] = biological target: Clusterin precursor (human) (UniProt P10909); experiment: as above
Sequence of Clusterin precursor (human) (P10909 23-449 limits assumed, form in doubt): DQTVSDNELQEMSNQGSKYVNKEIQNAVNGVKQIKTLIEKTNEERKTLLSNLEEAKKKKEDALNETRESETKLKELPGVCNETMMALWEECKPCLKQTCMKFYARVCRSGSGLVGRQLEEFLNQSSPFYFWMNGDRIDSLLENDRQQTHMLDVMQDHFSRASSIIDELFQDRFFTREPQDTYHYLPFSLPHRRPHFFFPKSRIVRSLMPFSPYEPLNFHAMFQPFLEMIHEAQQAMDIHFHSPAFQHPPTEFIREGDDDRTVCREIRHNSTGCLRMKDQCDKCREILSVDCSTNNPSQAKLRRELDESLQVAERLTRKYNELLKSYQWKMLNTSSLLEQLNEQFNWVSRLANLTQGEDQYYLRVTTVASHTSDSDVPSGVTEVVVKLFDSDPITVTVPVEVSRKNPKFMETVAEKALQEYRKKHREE

[12] = biological target: Apolipoprotein E precursor/Apolipoprotein E/Apolipoprotein E3 (Fragment) (human) (UniProt P02649); experiment: as above
[13] = biological target: fibronectin 1 isoform 4 preproprotein (human) (UniProt P02751); experiment: as above
[14] = biological target: Heat shock 70 kDa protein 1L (human) (UniProt P34931); experiment: as above
[15] = biological target: Histone H2B type 2-E (human) (UniProt Q16778); experiment: as above
[16] = biological target: Histidine-rich glycoprotein precursor (human) (UniProt P04196); experiment: as above
Sequence of Histidine-rich glycoprotein precursor (human) (P04196 19-525 limits assumed): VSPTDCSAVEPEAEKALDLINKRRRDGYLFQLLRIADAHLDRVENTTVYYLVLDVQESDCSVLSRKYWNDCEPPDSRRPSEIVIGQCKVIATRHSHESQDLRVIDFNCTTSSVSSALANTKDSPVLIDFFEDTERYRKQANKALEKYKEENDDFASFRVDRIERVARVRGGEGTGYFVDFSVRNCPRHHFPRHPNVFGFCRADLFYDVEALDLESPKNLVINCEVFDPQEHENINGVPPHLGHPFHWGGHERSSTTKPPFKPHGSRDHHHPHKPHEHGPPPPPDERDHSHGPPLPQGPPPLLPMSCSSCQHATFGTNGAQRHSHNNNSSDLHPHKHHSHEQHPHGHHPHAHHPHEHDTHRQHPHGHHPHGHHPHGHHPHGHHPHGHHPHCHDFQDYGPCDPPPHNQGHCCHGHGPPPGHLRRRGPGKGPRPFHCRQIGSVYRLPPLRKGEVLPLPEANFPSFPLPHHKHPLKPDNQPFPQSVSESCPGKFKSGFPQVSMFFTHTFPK

[17] = biological target: Isoform 1 of Fibrinogen alpha chain precursor (human) (UniProt P02671); experiment: as above
Sequence of Isoform 1 of Fibrinogen alpha chain precursor (human) (P02671 20-866 limits assumed, form in doubt): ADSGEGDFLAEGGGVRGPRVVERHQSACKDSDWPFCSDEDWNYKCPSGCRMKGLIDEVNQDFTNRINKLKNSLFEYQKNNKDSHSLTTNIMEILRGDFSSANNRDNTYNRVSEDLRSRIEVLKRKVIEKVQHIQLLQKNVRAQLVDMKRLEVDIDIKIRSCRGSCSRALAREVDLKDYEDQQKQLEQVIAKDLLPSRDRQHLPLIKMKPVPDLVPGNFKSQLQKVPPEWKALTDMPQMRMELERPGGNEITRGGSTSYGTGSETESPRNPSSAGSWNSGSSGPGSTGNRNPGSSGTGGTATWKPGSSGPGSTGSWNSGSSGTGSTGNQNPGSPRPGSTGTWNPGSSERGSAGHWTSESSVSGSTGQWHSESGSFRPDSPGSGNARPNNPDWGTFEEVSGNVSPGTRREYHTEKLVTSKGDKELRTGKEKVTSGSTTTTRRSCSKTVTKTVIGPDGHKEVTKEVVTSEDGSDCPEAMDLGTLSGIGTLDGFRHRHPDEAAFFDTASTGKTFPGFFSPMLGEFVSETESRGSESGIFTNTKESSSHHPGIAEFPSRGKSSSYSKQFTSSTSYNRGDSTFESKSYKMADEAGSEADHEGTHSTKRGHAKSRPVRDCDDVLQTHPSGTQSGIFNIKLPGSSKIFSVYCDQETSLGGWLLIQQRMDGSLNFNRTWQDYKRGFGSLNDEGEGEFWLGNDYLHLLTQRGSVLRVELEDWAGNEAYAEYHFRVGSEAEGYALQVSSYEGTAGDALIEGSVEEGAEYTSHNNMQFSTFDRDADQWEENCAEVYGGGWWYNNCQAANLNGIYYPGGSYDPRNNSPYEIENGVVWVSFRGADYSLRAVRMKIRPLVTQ

[18] = biological target: IGHG4 protein, immunoglobulin heavy constant gamma 4 (human) [IgG part: P01861]; experiment: as above
[19] = biological target: Apolipoprotein A-I precursor (human) (UniProt P02647); experiment: as above
[20] = biological target: Apolipoprotein A-IV precursor (human) (UniProt P06727); experiment: as above
[21] = biological target: Isoform A of Proteoglycan-4 precursor (human) (UniProt Q92954); experiment: as above
[22] = biological target: IGHM protein, immunoglobulin heavy chain mu (heavy chain disease protein) (human) (UniProt P01871); experiment: as above
[23] = biological target: Haptoglobin precursor (human) (UniProt P00738); experiment: as above
[24] = biological target: Immunoglobulin heavy constant gamma 3 (G3m marker)/Ig gamma-3 chain C region (human) (UniProt P01860); experiment: BiP-Sepharose pull-down, AL amyloidosis patient II plasma (B3), MS of urea eluate; may be indirect
[25] = biological target: Isoform 1 of Plectin-1 (human) (UniProt Q15149); experiment: as above
[26] = biological target: 25 kDa protein/immunoglobulin lambda chain/rheumatoid factor G9 light chain (lambda V3)/IGLC1 protein (human) (UniProt P0CG04); experiment: as above
[27] = biological target: Hypothetical protein/Heat shock 70 kDa protein 5 (glucose-regulated protein, 78 kDa = GRP78 = BiP = HSPA5), as identified in eluates (human) (UniProt P11021); experiment: BiP-Sepharose pull-down, RA synovial fluid sample 6B, 1 M NaCl eluate, MS; BiP may stem from the column
Sequence of Hypothetical protein/Heat shock 70 kDa protein 5 (glucose-regulated protein, 78 kDa = GRP78 = BiP = HSPA5), as identified in eluates (human) (P11021 19-654 limits assumed): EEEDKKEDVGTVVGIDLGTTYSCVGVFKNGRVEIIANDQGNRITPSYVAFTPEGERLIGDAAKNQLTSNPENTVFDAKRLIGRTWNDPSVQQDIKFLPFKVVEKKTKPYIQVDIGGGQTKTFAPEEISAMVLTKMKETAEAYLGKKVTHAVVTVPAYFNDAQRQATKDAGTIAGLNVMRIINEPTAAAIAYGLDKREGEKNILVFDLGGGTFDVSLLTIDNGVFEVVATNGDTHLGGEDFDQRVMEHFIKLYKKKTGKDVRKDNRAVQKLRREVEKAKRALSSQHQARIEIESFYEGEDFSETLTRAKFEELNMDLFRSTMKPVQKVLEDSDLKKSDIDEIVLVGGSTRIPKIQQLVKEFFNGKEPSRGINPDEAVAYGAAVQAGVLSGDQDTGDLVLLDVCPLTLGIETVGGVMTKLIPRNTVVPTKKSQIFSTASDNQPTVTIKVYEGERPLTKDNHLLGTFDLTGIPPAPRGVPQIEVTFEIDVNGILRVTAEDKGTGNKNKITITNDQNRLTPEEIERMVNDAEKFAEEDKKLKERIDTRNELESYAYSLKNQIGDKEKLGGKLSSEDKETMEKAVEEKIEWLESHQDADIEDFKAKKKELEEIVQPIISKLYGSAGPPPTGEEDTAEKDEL

[28] = biological target: Hypothetical protein/Heat shock 70 kDa protein 5 (glucose-regulated protein, 78 kDa = GRP78 = BiP = HSPA5), as identified in eluates (human) (UniProt P11021); experiment: BiP-Sepharose pull-down, RA synovial fluid sample 3B, 1 M NaCl eluate, MS; BiP may stem from the column
[29] = biological target: Hypothetical protein/Heat shock 70 kDa protein 5 (glucose-regulated protein, 78 kDa = GRP78 = BiP = HSPA5), as identified in eluates (human) (UniProt P11021); experiment: BiP-Sepharose pull-down, RA patient IV synovial fluid (B6), MS of urea eluate; BiP may stem from the column

Sequence of recombinant human BiP with C-terminal linker, FLAG-tag and His-tag (BiP-FLAG-His) (P11021 other isoform, or with tags, fused parts or gaps): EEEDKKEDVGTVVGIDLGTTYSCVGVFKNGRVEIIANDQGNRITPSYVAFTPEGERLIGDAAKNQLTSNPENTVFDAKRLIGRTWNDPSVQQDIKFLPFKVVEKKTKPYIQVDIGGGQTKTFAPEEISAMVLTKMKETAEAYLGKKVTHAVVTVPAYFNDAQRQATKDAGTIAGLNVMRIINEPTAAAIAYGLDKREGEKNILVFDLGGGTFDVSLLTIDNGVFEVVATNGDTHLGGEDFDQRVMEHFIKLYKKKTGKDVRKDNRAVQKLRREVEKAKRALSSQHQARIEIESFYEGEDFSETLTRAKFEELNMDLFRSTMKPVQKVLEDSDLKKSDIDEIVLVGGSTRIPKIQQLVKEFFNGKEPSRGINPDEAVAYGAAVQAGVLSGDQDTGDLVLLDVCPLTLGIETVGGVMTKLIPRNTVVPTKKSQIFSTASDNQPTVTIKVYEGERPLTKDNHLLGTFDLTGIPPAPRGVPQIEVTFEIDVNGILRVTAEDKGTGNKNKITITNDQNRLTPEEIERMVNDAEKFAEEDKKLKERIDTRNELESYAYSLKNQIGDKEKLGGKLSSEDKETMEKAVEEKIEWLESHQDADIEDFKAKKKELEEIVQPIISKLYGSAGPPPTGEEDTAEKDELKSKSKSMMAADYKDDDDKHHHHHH
Sequence of 187 kDa protein/Complement component 3 (human) (P01024 23-1663 limits assumed): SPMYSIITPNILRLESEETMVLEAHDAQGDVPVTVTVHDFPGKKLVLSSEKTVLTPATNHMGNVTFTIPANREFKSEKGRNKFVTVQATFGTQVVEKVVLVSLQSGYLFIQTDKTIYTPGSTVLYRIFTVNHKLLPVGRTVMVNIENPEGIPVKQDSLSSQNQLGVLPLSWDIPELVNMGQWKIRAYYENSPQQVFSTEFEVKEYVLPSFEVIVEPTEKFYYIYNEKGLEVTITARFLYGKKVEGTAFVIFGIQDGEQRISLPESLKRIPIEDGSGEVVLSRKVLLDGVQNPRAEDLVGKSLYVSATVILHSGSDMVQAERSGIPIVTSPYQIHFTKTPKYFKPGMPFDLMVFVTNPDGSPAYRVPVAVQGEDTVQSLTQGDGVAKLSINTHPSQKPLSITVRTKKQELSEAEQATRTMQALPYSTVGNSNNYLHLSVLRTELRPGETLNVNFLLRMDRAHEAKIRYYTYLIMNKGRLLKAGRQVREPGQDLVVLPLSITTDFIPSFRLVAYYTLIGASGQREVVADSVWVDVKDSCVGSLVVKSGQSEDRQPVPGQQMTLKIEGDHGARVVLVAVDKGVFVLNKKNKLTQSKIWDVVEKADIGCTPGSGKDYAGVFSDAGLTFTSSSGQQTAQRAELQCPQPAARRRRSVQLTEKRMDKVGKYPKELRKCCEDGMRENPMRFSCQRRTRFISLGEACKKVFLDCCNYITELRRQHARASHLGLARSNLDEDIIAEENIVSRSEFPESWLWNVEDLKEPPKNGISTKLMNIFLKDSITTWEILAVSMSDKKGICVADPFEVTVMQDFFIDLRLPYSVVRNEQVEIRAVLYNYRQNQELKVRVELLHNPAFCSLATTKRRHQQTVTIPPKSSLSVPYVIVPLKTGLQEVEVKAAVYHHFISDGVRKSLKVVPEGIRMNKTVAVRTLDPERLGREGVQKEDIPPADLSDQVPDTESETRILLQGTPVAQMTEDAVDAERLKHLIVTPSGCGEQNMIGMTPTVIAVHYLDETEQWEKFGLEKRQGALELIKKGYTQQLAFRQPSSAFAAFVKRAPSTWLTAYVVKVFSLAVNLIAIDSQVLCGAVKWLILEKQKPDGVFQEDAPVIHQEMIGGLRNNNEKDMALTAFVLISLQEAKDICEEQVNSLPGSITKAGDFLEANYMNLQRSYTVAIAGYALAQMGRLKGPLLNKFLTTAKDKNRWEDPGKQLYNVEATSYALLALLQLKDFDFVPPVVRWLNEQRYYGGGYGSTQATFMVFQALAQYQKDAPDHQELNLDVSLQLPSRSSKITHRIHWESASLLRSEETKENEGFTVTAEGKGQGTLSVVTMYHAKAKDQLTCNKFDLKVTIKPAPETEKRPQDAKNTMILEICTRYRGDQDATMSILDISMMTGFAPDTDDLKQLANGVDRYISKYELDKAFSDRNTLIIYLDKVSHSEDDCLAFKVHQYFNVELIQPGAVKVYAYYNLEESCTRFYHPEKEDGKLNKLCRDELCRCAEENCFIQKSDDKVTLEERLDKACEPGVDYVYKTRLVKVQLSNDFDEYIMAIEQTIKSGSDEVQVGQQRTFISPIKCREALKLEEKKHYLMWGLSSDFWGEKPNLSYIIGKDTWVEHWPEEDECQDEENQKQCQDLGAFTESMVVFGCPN

recombinant human BiP with C-terminal linker, FLAG-tag and His-tag (BiP-FLAG-His) (from UniProt P11021 19-654)
17 peptides: # of unique peptides [27]
2 peptides: # of unique peptides [1] | # of unique peptides [2] | # of unique peptides [8] | # of unique peptides [15] | # of unique peptides [16] | # of unique peptides [21] | # of peptides [24]
3 peptides: # of unique peptides [10] | # of unique peptides [17] | # of unique peptides [19] | # of unique peptides [20] | # of unique peptides [22]
4 peptides: # of unique peptides [18]
10 peptides: # of unique peptides [13]
31 peptides: # of peptides [29]
1 peptides: # of unique peptides [3] | # of unique peptides [4] | # of unique peptides [5] | # of unique peptides [6] | # of unique peptides [7] | # of unique peptides [9] | # of unique peptides [11] | # of unique peptides [12] | # of unique peptides [14] | # of unique peptides [23] | # of peptides [25] | # of peptides [26]
19 peptides: # of unique peptides [28]
